Columns and labels:
[1] = molecular target: T1, UspA2 of Moraxella catarrhalis Dutch isolate F10 (Moraxella catarrhalis); test: cell-based or functional assay
T1 chain: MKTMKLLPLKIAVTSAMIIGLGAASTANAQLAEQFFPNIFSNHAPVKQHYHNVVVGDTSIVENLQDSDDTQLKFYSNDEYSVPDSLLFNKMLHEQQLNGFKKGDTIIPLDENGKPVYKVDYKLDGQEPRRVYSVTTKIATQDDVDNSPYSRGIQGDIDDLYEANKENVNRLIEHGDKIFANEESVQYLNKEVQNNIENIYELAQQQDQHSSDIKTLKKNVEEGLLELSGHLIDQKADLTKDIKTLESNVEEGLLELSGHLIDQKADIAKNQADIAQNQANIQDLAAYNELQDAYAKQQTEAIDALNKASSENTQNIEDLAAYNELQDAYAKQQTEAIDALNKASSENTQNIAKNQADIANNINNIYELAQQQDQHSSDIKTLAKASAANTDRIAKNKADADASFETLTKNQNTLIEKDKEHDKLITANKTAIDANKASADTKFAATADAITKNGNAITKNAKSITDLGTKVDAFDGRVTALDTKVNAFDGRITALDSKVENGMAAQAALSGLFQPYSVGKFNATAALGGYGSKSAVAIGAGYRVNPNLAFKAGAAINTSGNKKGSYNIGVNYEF

[2] = molecular target: UspA2 of Moraxella catarrhalis Denmark isolate BBH18 (Moraxella catarrhalis); test: cell-based or functional assay
[3] = molecular target: T2, UspA2 of Moraxella catarrhalis strain ATCC 25238 (Moraxella catarrhalis); test: cell-based or functional assay
T2 chain: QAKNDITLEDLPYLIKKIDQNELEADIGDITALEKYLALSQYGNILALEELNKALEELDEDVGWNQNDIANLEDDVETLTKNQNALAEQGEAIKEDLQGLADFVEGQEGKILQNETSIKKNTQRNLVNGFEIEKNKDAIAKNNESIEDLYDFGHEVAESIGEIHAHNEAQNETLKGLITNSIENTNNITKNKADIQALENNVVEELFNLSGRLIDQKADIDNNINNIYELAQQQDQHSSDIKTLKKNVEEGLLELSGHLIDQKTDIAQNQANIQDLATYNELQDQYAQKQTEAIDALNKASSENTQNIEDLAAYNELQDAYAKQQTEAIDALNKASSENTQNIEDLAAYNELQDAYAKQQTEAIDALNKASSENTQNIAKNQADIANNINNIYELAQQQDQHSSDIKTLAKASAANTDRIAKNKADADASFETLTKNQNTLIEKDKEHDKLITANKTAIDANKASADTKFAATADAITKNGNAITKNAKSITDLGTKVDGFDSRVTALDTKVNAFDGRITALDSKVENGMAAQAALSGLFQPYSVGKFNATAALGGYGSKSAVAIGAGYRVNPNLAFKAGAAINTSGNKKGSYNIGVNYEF

[4] = molecular target: UspA1 of Moraxella catarrhalis strain ATCC 43617 (Moraxella catarrhalis); test: cell-based or functional assay
[5] = molecular target: UspA2H of Moraxella catarrhalis UK isolate 296 (AERIS study) (Moraxella catarrhalis); test: cell-based or functional assay
[6] = molecular target: UspA2H of Moraxella catarrhalis UK isolate 415 (AERIS study) (Moraxella catarrhalis); test: cell-based or functional assay
[7] = molecular target: UspA2H of Moraxella catarrhalis UK isolate 268 (AERIS study) (Moraxella catarrhalis); test: cell-based or functional assay
[8] = molecular target: UspA2H of Moraxella catarrhalis UK isolate 240 (AERIS study) (Moraxella catarrhalis); test: cell-based or functional assay
[9] = molecular target: UspA2H of Moraxella catarrhalis UK isolate 193 (AERIS study) (Moraxella catarrhalis); test: cell-based or functional assay
[10] = molecular target: T3, recombinant soluble UspA2 (SEQ ID NO: 53) (Moraxella catarrhalis); test: negative-stain electron microscopy of the complex
T3 construct: also called MC-009; soluble UspA2 recombinant protein
T3 chain: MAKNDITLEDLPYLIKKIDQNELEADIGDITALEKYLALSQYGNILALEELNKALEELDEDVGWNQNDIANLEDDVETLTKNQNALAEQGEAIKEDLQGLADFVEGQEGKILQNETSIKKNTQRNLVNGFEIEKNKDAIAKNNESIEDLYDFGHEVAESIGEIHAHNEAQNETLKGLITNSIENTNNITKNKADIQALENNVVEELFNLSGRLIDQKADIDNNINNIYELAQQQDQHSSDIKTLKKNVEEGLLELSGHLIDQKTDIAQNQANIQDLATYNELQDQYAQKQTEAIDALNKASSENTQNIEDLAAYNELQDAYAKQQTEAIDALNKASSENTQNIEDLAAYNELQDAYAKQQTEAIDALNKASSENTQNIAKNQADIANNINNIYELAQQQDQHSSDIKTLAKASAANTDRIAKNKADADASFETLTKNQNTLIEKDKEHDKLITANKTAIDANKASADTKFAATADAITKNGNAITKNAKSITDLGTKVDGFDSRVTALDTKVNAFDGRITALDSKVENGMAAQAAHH

B1: FHUSPA2/10 monoclonal antibody (antibody, V domains shown)
VH: EVQLQQSGTVLARPGASVKMSCKASGYSFTSYWMHWVKQRPGQGLEWIGAIYPGNSDTSYNQKFKGKAKLTAVTSASTAYMELSNLTNEDSAVYSCTLLRFLDAYWGQGTLVTVSA
VL: QIVLSQSPAILSASPGEKVTMTCRASSSVSYMHWYQQKPGSSPKPWIYATSNLASGVPARFSGSGSGTSYSLTISRVEAEDAATYYCQQWSSNPPTFGGGSKLEIK
notes: Hybridoma-secreted mouse monoclonal antibody; Isotype confirmed as IgG2a, light chain of kappa class; also called FHUSPA2/10 mAb; anti-UspA2 monoclonal antibody FHUSPA2/10
bactericidal activity (mid-point titer) [1]: 528000 reciprocal dilution inducing 50% of killing | bactericidal activity (mid-point titer) [2]: 386000 reciprocal dilution inducing 50% of killing | bactericidal activity (mid-point titer) [3]: 1.88e+06 reciprocal dilution inducing 50% of killing | bactericidal activity (mid-point titer) [4]: < 100 reciprocal dilution inducing 50% of killing | bactericidal activity (mid-point titer) [5]: 114000 reciprocal dilution inducing 50% of killing | bactericidal activity (mid-point titer) [6]: 256000 reciprocal dilution inducing 50% of killing | bactericidal activity (mid-point titer) [7]: > 384000 reciprocal dilution inducing 50% of killing | bactericidal activity (mid-point titer) [8]: > 25600 reciprocal dilution inducing 50% of killing | bactericidal activity (mid-point titer) [9]: > 640000 reciprocal dilution inducing 50% of killing | binding result [10]: binds
